System: Escherichia coli TOP10
Assay: shrunken log2 fold change of peptide-encoding DNA abundance (4.5 h post-induction vs induction); higher = less antimicrobial activity (less host growth inhibition)
Details: time post-induction: 4.5 h; library: site-saturation at positions 5, 18, 19, 20
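Further: peptides expressed intracellularly from a pBAD plasmid library in pooled LB shake-flask culture, induced with 0.3% L-arabinose, DNA abundance read by NGS, three biological replicates, DESeq2 with apeglm shrinkage.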

RRIRGRPPRLPRPRPRPCSEPRP
shrunken log2 fold change: 0.0744

RRIRGRPPRLPRPRPRPCSFPRP
shrunken log2 fold change: 0.2

RRIRGRPPRLPRPRPRPCTPPRP
shrunken log2 fold change: 0.337

RRIRGRPPRLPRPRPRPCVLPRP
shrunken log2 fold change: 0.158

RRIRGRPPRLPRPRPRPCYEPRP
shrunken log2 fold change: 0.219

RRIRGRPPRLPRPRPRPCYQPRP
shrunken log2 fold change: 0.219

RRIRGRPPRLPRPRPRPCYYPRP
shrunken log2 fold change: -0.00676

RRIRGRPPRLPRPRPRPDARPRP
shrunken log2 fold change: 0.34

RRIRGRPPRLPRPRPRPDCMPRP
shrunken log2 fold change: 0.909

RRIRGRPPRLPRPRPRPDDTPRP
shrunken log2 fold change: 0.944

RRIRGRPPRLPRPRPRPDEEPRP
shrunken log2 fold change: 1.76

RRIRGRPPRLPRPRPRPDENPRP
shrunken log2 fold change: 0.987

RRIRGRPPRLPRPRPRPDFCPRP
shrunken log2 fold change: 2.03

RRIRGRPPRLPRPRPRPDGGPRP
shrunken log2 fold change: 0.468

RRIRGRPPRLPRPRPRPDGKPRP
shrunken log2 fold change: 0.0293

RRIRGRPPRLPRPRPRPDGPPRP
shrunken log2 fold change: 0.155

RRIRGRPPRLPRPRPRPDHWPRP
shrunken log2 fold change: 0.186

RRIRGRPPRLPRPRPRPDIRPRP
shrunken log2 fold change: 0.454

RRIRGRPPRLPRPRPRPDKAPRP
shrunken log2 fold change: -0.00124

RRIRGRPPRLPRPRPRPDKEPRP
shrunken log2 fold change: 0.208

RRIRGRPPRLPRPRPRPDKFPRP
shrunken log2 fold change: 0.0879

RRIRGRPPRLPRPRPRPDLNPRP
shrunken log2 fold change: 0.843

RRIRGRPPRLPRPRPRPDNIPRP
shrunken log2 fold change: 0.119

RRIRGRPPRLPRPRPRPDPKPRP
shrunken log2 fold change: 0.649

RRIRGRPPRLPRPRPRPDPWPRP
shrunken log2 fold change: 0.53

RRIRGRPPRLPRPRPRPDQKPRP
shrunken log2 fold change: 0.0127

RRIRGRPPRLPRPRPRPDQWPRP
shrunken log2 fold change: 0.665

RRIRGRPPRLPRPRPRPDRHPRP
shrunken log2 fold change: 0.191

RRIRGRPPRLPRPRPRPDRNPRP
shrunken log2 fold change: 0.0753

RRIRGRPPRLPRPRPRPDSVPRP
shrunken log2 fold change: 0.704

RRIRGRPPRLPRPRPRPDTCPRP
shrunken log2 fold change: 0.131

RRIRGRPPRLPRPRPRPDTFPRP
shrunken log2 fold change: 0.43

RRIRGRPPRLPRPRPRPDWAPRP
shrunken log2 fold change: 1.22

RRIRGRPPRLPRPRPRPEAQPRP
shrunken log2 fold change: 1.61

RRIRGRPPRLPRPRPRPECGPRP
shrunken log2 fold change: 1.71

RRIRGRPPRLPRPRPRPECHPRP
shrunken log2 fold change: 1.62

RRIRGRPPRLPRPRPRPEDKPRP
shrunken log2 fold change: 1.23

RRIRGRPPRLPRPRPRPEDTPRP
shrunken log2 fold change: 1.58

RRIRGRPPRLPRPRPRPEEAPRP
shrunken log2 fold change: 2.32

RRIRGRPPRLPRPRPRPEEEPRP
shrunken log2 fold change: 0.107

RRIRGRPPRLPRPRPRPEEPPRP
shrunken log2 fold change: 0.106

RRIRGRPPRLPRPRPRPEETPRP
shrunken log2 fold change: 1.51

RRIRGRPPRLPRPRPRPEGAPRP
shrunken log2 fold change: 1.49

RRIRGRPPRLPRPRPRPEGHPRP
shrunken log2 fold change: 1.8

RRIRGRPPRLPRPRPRPEGTPRP
shrunken log2 fold change: 1.55

RRIRGRPPRLPRPRPRPEIWPRP
shrunken log2 fold change: 1.34

RRIRGRPPRLPRPRPRPEKAPRP
shrunken log2 fold change: 0.144

RRIRGRPPRLPRPRPRPEKCPRP
shrunken log2 fold change: 0.599

RRIRGRPPRLPRPRPRPELLPRP
shrunken log2 fold change: 0.334

RRIRGRPPRLPRPRPRPEMGPRP
shrunken log2 fold change: 1.37

RRIRGRPPRLPRPRPRPEMIPRP
shrunken log2 fold change: 1.92

RRIRGRPPRLPRPRPRPENMPRP
shrunken log2 fold change: 0.325

RRIRGRPPRLPRPRPRPEQYPRP
shrunken log2 fold change: -0.183

RRIRGRPPRLPRPRPRPERNPRP
shrunken log2 fold change: 0.855

RRIRGRPPRLPRPRPRPERWPRP
shrunken log2 fold change: 1.19

RRIRGRPPRLPRPRPRPESEPRP
shrunken log2 fold change: 2

RRIRGRPPRLPRPRPRPETQPRP
shrunken log2 fold change: 2.49

RRIRGRPPRLPRPRPRPETYPRP
shrunken log2 fold change: 0.569

RRIRGRPPRLPRPRPRPEVNPRP
shrunken log2 fold change: 1.62

RRIRGRPPRLPRPRPRPEYEPRP
shrunken log2 fold change: 0.165

RRIRGRPPRLPRPRPRPEYQPRP
shrunken log2 fold change: 0.416

RRIRGRPPRLPRPRPRPFCCPRP
shrunken log2 fold change: 0.522

RRIRGRPPRLPRPRPRPFDLPRP
shrunken log2 fold change: -0.24

RRIRGRPPRLPRPRPRPFDSPRP
shrunken log2 fold change: 0.0127

RRIRGRPPRLPRPRPRPFELPRP
shrunken log2 fold change: 0.0951

RRIRGRPPRLPRPRPRPFEYPRP
shrunken log2 fold change: 0.0664

RRIRGRPPRLPRPRPRPFFEPRP
shrunken log2 fold change: 0.428

RRIRGRPPRLPRPRPRPFGTPRP
shrunken log2 fold change: 0.196

RRIRGRPPRLPRPRPRPFGWPRP
shrunken log2 fold change: 0.741

RRIRGRPPRLPRPRPRPFHNPRP
shrunken log2 fold change: -0.388

RRIRGRPPRLPRPRPRPFHVPRP
shrunken log2 fold change: -0.0412

RRIRGRPPRLPRPRPRPFKSPRP
shrunken log2 fold change: 0.08

RRIRGRPPRLPRPRPRPFKVPRP
shrunken log2 fold change: -0.14

RRIRGRPPRLPRPRPRPFLKPRP
shrunken log2 fold change: 0.186

RRIRGRPPRLPRPRPRPFLVPRP
shrunken log2 fold change: -0.0616

RRIRGRPPRLPRPRPRPFRCPRP
shrunken log2 fold change: 0.0939

RRIRGRPPRLPRPRPRPFRLPRP
shrunken log2 fold change: -0.194

RRIRGRPPRLPRPRPRPFSHPRP
shrunken log2 fold change: -0.153

RRIRGRPPRLPRPRPRPFTGPRP
shrunken log2 fold change: -0.186

RRIRGRPPRLPRPRPRPFVCPRP
shrunken log2 fold change: 0.327

RRIRGRPPRLPRPRPRPFVIPRP
shrunken log2 fold change: 0.215

RRIRGRPPRLPRPRPRPFWKPRP
shrunken log2 fold change: 0.0889

RRIRGRPPRLPRPRPRPFYDPRP
shrunken log2 fold change: 0.0844

RRIRGRPPRLPRPRPRPFYHPRP
shrunken log2 fold change: -0.102

RRIRGRPPRLPRPRPRPFYLPRP
shrunken log2 fold change: -0.0695

RRIRGRPPRLPRPRPRPFYRPRP
shrunken log2 fold change: -0.26

RRIRGRPPRLPRPRPRPGCFPRP
shrunken log2 fold change: 1.1

RRIRGRPPRLPRPRPRPGDLPRP
shrunken log2 fold change: 2.41

RRIRGRPPRLPRPRPRPGDWPRP
shrunken log2 fold change: 1.34

RRIRGRPPRLPRPRPRPGDYPRP
shrunken log2 fold change: 0.199

RRIRGRPPRLPRPRPRPGFIPRP
shrunken log2 fold change: 0.0369

RRIRGRPPRLPRPRPRPGHGPRP
shrunken log2 fold change: 0.323

RRIRGRPPRLPRPRPRPGHVPRP
shrunken log2 fold change: 0.204

RRIRGRPPRLPRPRPRPGIIPRP
shrunken log2 fold change: 0.0469

RRIRGRPPRLPRPRPRPGIWPRP
shrunken log2 fold change: 0.758

RRIRGRPPRLPRPRPRPGKDPRP
shrunken log2 fold change: 0.18

RRIRGRPPRLPRPRPRPGKYPRP
shrunken log2 fold change: -0.265

RRIRGRPPRLPRPRPRPGLAPRP
shrunken log2 fold change: 1.25

RRIRGRPPRLPRPRPRPGLPPRP
shrunken log2 fold change: 0.747

RRIRGRPPRLPRPRPRPGMSPRP
shrunken log2 fold change: 0.417

RRIRGRPPRLPRPRPRPGNKPRP
shrunken log2 fold change: -0.216

RRIRGRPPRLPRPRPRPGPVPRP
shrunken log2 fold change: 1.24

RRIRGRPPRLPRPRPRPGQLPRP
shrunken log2 fold change: 0.178

RRIRGRPPRLPRPRPRPGQVPRP
shrunken log2 fold change: 0.11

RRIRGRPPRLPRPRPRPGRLPRP
shrunken log2 fold change: 0.706

RRIRGRPPRLPRPRPRPGTTPRP
shrunken log2 fold change: 0.379

RRIRGRPPRLPRPRPRPGTYPRP
shrunken log2 fold change: -0.201

RRIRGRPPRLPRPRPRPGVLPRP
shrunken log2 fold change: 0.912

RRIRGRPPRLPRPRPRPGWTPRP
shrunken log2 fold change: 0.708

RRIRGRPPRLPRPRPRPGYIPRP
shrunken log2 fold change: -0.0887

RRIRGRPPRLPRPRPRPHACPRP
shrunken log2 fold change: -0.0193

RRIRGRPPRLPRPRPRPHAGPRP
shrunken log2 fold change: 1.06

RRIRGRPPRLPRPRPRPHAPPRP
shrunken log2 fold change: 1.23

RRIRGRPPRLPRPRPRPHARPRP
shrunken log2 fold change: 0.629

RRIRGRPPRLPRPRPRPHCYPRP
shrunken log2 fold change: 0.0539

RRIRGRPPRLPRPRPRPHDAPRP
shrunken log2 fold change: 0.00554

RRIRGRPPRLPRPRPRPHDMPRP
shrunken log2 fold change: -0.204

RRIRGRPPRLPRPRPRPHEWPRP
shrunken log2 fold change: 0.116

RRIRGRPPRLPRPRPRPHFRPRP
shrunken log2 fold change: 0.199

RRIRGRPPRLPRPRPRPHGSPRP
shrunken log2 fold change: -0.0658

RRIRGRPPRLPRPRPRPHGTPRP
shrunken log2 fold change: 0.331

RRIRGRPPRLPRPRPRPHHIPRP
shrunken log2 fold change: -0.525

RRIRGRPPRLPRPRPRPHHYPRP
shrunken log2 fold change: -0.524

RRIRGRPPRLPRPRPRPHICPRP
shrunken log2 fold change: -0.0626

RRIRGRPPRLPRPRPRPHKHPRP
shrunken log2 fold change: 0.0984

RRIRGRPPRLPRPRPRPHKQPRP
shrunken log2 fold change: 0.0331

RRIRGRPPRLPRPRPRPHLCPRP
shrunken log2 fold change: 0.58

RRIRGRPPRLPRPRPRPHLKPRP
shrunken log2 fold change: 0.378

RRIRGRPPRLPRPRPRPHNAPRP
shrunken log2 fold change: 0.0947

RRIRGRPPRLPRPRPRPHNIPRP
shrunken log2 fold change: -0.386

RRIRGRPPRLPRPRPRPHPHPRP
shrunken log2 fold change: 0.399

RRIRGRPPRLPRPRPRPHPWPRP
shrunken log2 fold change: 0.345

RRIRGRPPRLPRPRPRPHQKPRP
shrunken log2 fold change: 0.0462

RRIRGRPPRLPRPRPRPHSFPRP
shrunken log2 fold change: 2.05

RRIRGRPPRLPRPRPRPHTDPRP
shrunken log2 fold change: 0.103

RRIRGRPPRLPRPRPRPHTNPRP
shrunken log2 fold change: 0.221

RRIRGRPPRLPRPRPRPHTWPRP
shrunken log2 fold change: -0.0293

RRIRGRPPRLPRPRPRPHVRPRP
shrunken log2 fold change: 0.427

RRIRGRPPRLPRPRPRPHVYPRP
shrunken log2 fold change: 0.469

RRIRGRPPRLPRPRPRPHWCPRP
shrunken log2 fold change: 0.00693

RRIRGRPPRLPRPRPRPIAEPRP
shrunken log2 fold change: 3.26

RRIRGRPPRLPRPRPRPIALPRP
shrunken log2 fold change: 0.16

RRIRGRPPRLPRPRPRPIAWPRP
shrunken log2 fold change: 1.05

RRIRGRPPRLPRPRPRPICTPRP
shrunken log2 fold change: 1.08

RRIRGRPPRLPRPRPRPIDWPRP
shrunken log2 fold change: 0.559

RRIRGRPPRLPRPRPRPIEIPRP
shrunken log2 fold change: -0.0543

RRIRGRPPRLPRPRPRPIFAPRP
shrunken log2 fold change: 0.609

RRIRGRPPRLPRPRPRPIFGPRP
shrunken log2 fold change: -0.0743

RRIRGRPPRLPRPRPRPIGSPRP
shrunken log2 fold change: 0.45

RRIRGRPPRLPRPRPRPIMEPRP
shrunken log2 fold change: 0.229
